Values quoted from earlier work as cited in article PMC6824834.

Target: Glu165 (UniProt position 165, VVVAYEPVWAI)
Conditions: substrate-bound, closed (desolvated) active site

**Q.** With “Triosephosphate isomerase (TIM) (Not stated for the quoted values; residue numbering is that of Saccharomyces cerevisiae TIM (yTIM))” as the substance, how does the pKa read?
**A.** The pKa was over 6.
